# Assay results taken from patent publication US20240000956A1.
# Columns and labels:
# [1] = biological target: LecRLK-2RPAN (Salix purpurea); assay: size exclusion chromatography, self-association
# [2] = biological target: SpG-type LecRLK-2PAN (Salix purpurea); assay: size exclusion chromatography, self-association
Substance,percent monomeric [1],percent in higher-order complex (likely a trimer or tetramer) [2],percent monomeric [2]
LecRLK-2RPAN (receptor),26.4%,,
SpG-type LecRLK-2PAN (receptor),,48.2%,51.8%
